For test [1], the target named is Recombinant SARS-CoV-2 RBD protein (E. coli) (SARS-CoV-2, UniProt P0DTC2). Kind of test: BLI.
In a further test the target is SARS-CoV RBD (SARS-CoV, strain , UniProt P59594). Kind of test: BLI.

The values below come from article PMC8498651 (Cell Reports, 2021).

B1: 2H04, anti-SARS-CoV-2 mAb (IgG) (antibody, V domains shown)
VH: EVQLQQSGAELVKPGASVKMSCKASGYTFTSYWITWVKQRPGQGLEWIGDIYPGSGSTKYNEKFRSEATLTVDTSSTTAYMQLSSLTSEDSAVYYCARWDFYGSRTFDYWGQGTTLTVSS
VL: DIVLTQSPAILSVSPGERVSFSCRASQNIGTIIHWYQQRTNGSPRLLIKYASESVSGIPSRFSGSGSGTDFTLSINSVESEDIADYYCQQSSSWPLTFGAGTKLEL
B1: in test [1], the Kd was 40.1 nM and the half-life of dissociation was determined as 1.27 min.

B2: 2B04, anti-SARS-CoV-2 mAb (IgG) (antibody, V domains shown)
VH: QVQLKQSGPGLVAPSQSLSITCTVSGFSLINYAISWVRQPPGKGLEWLGVIWTGGGTNYNSALKSRLSISKDNSKSQVFLKMNSLQTDDTARYYCARKDYYGRYYGMDYWGQGTSVTVS
VL: QAVVTQESALTTSPGETVTLTCRSSTGAVTTSNYANWVQEKPDHLFTGLIGGTNNRAPGVPARFSGSLIGDKAALTITGAQTEDEAIYFCALWYNNHWVFGGGTKLTVL
Regarding B2, the binding result with SARS-CoV RBD is on record as “no binding”. In test [1], the Kd was 1.05 nM and the half-life of dissociation came out at 23.7 min.
